Reference: patent US20130058943A1

Assays:
[1] = biological target: recombinant bovine TNF (bovine) (UniProt Q06599); experiment: cell-based or functional assay
[2] = biological target: recombinant canine TNF (canine) (UniProt P51742); experiment: cell-based or functional assay
[3] = biological target: recombinant cynomolgus monkey TNF (cynomolgus monkey) (UniProt P79337); experiment: cell-based or functional assay
[4] = biological target: recombinant human TNF (human) (UniProt P01375); experiment: cell-based or functional assay
[5] = biological target: recombinant murine TNF (murine) (UniProt P06804); experiment: cell-based or functional assay
[6] = biological target: recombinant rat TNF (rat) (UniProt P16599); experiment: cell-based or functional assay
[7] = biological target: recombinant rhesus macaque TNF (rhesus macaque) (UniProt P48094); experiment: cell-based or functional assay
[8] = biological target: transmembrane TNF on stimulated human PBMC (human) (UniProt P01375); experiment: cell-based or functional assay
[9] = biological target: recombinant human TNF (human) (UniProt P01375); experiment: anti-TNF ELISA, protein by BCA; first of two lots
[10] = biological target: recombinant human TNF (human) (UniProt P01375); experiment: anti-TNF ELISA, protein by BCA; second of two lots
[11] = biological target: recombinant human TNF (human) (UniProt P01375); experiment: anti-TNF ELISA, AU/mg of final lot over defatted colostrum
[12] = biological target: recombinant human TNF (human) (UniProt P01375); experiment: sandwich ELISA, rhTNF 250 pg/ml captured by plate-bound antibody
[13] = biological target: recombinant human IL-6 (human) (UniProt P05231); experiment: sandwich ELISA, rhIL-6 300 pg/ml captured by plate-bound antibody
[14] = biological target: recombinant human TNF (human) (UniProt P01375); experiment: table head: EC50 in TNF ELISA; the text that introduces the table speaks of the L929 neutralization assay

Chain of UniProt P05231 (P05231 30-212 limits assumed): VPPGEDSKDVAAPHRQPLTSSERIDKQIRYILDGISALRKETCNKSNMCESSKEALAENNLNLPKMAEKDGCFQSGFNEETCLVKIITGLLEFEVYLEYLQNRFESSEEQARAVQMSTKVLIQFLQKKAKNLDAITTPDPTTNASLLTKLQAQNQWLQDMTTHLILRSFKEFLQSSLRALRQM
Chain of UniProt P51742 (P51742 whole entry, form in doubt): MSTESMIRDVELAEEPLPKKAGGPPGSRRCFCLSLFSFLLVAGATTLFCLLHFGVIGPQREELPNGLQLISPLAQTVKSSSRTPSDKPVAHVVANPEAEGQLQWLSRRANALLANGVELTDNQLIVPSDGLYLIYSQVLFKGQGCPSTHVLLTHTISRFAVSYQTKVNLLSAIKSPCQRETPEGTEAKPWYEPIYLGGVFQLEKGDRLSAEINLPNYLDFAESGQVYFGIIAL
Chain of UniProt P06804 (P06804 whole entry, form in doubt): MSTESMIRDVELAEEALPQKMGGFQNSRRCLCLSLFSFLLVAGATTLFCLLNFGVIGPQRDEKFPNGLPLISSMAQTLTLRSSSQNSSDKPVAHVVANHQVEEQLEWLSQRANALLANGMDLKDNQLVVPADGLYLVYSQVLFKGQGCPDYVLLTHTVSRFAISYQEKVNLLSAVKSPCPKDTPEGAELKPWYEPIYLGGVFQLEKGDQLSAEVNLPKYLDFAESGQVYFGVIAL
Chain of UniProt P79337 (P79337 whole entry, form in doubt): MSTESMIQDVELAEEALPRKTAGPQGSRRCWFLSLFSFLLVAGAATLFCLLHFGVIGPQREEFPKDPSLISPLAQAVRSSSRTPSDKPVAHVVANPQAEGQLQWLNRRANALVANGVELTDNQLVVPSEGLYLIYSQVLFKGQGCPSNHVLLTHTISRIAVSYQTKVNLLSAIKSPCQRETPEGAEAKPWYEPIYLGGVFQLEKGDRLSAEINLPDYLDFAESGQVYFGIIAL
Chain of UniProt Q06599 (Q06599 whole entry, form in doubt): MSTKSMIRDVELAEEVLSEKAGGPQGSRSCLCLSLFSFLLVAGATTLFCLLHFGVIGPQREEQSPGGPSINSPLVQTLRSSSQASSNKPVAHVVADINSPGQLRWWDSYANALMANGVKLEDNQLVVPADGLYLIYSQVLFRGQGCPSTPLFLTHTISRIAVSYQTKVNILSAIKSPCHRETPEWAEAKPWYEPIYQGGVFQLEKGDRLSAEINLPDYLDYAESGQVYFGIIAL
Chain of UniProt P48094 (P48094 whole entry, form in doubt): as the sequence (P79337 whole entry, form in doubt) above, with Q8R, A45T, V113L counted along it
Chain of UniProt P16599 (P16599 whole entry, form in doubt): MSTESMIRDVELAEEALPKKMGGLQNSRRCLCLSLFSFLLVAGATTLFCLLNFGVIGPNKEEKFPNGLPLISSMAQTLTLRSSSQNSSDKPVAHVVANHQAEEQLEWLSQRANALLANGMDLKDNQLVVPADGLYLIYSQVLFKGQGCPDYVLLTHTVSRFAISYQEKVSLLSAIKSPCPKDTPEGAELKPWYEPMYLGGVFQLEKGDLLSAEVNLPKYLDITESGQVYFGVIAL

Row | Substance | EC50, L929 neutralization assay [1] | EC50, L929 neutralization assay [2] | EC50, L929 neutralization assay [3] | EC50, L929 neutralization assay [4] | EC50, L929 neutralization assay [5] | EC50, L929 neutralization assay [6] | EC50, L929 neutralization assay [7] | Late apoptotic cells, annexin V / propidium iodide FACS of stimulated human PBMC (untreated 27.16%) [8] | Total apoptotic cells, annexin V / propidium iodide FACS of stimulated human PBMC (untreated 34.65%) [8] | anti-TNF activity by ELISA per mg protein (AU/mg protein) [9] | anti-TNF activity by ELISA per mg protein (AU/mg protein) [10] | fold increase of potency against defatted colostrum [11] | Absorbance 450 nm (absorbance at 450 nm) [12] | Absorbance 450 nm (absorbance at 450 nm) [13] | EC50 [14]
1 | AVX-470, bovine colostrum-derived polyclonal anti-hTNF antibody | > 2000 µg/mL | 250 µg/mL | 48 µg/mL | 28 µg/mL | > 2000 µg/mL | > 2000 µg/mL | 32 µg/mL | 43.3% | 52.1% | 634 | 526 | 1.9 fold | 0.76 | 0.03 | 15.9 µg/mL
2 | Control Bovine Ig (antibody) | – | – | – | – | – | – | – | – | – | – | – | – | -0.01 | 0.01 | –
